Test results taken from the supplement of paper PMC10567573.

B1: PPP2R2B (parent)
chain: PSNRSFFSEIISSISDVKFSHSGR
B2: NCF4 (parent)
chain: FVKILKDFPEEDDPTNWLRCYYYE

Variants of: B1
Test: protein stability index of a GFP-peptide fusion (GPS, HEK-293T) (PSI 1-6); higher = more stable
Details: c terminus: a fixed tail appended
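Note: lentivirally expressed fusions sorted by FACS into six bins by GFP to DsRed ratio, PSI derived from sequencing read proportions per bin multiplied by bin number.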

Protein stability index of substitutions, site by site:
R4: A 2.64, L 2.41, V 2.47, I 2.79, N 2.2, S 2.8, F 1.81, T 2.48, P 2.8, Q 2.66, M 2.1, K 2.54, G 3.02, E 2.81, C 1.83, H 2.1, W 1.4, D 3.49, Y 1.86
N3: Q 2.4, E 2.03, Y 2.55, I 1.83, H 2.72, F 2.06, K 2.12, D 2.32, T 2.14, S 2.57, R 2.35, L 2.17, M 2.13, A 2.27, C 2.19, P 2.49, G 2.19, V 1.74, W 2.75
F7: K 3.26, R 3.32, D 3.56, E 3.69, I 2.87, P 2.87, N 3.48, L 2.25, M 2.79, W 2.41, C 2.83, G 3.42, V 2.24, Y 2.51, T 2.79, H 3.32, Q 3.64, S 4.24, A 3.38
S8: D 2.32, E 2.57, G 2.41, F 2.11, C 1.7, A 1.91
S5: I 1.91, G 2.59, C 1.65, L 2.13, Q 2.42, H 2.91, N 2.36, V 1.96, A 2.31, T 2.31, R 2.64, M 2.65, E 2.9, W 2.1, Y 2.04, F 2.54, P 2.88, K 2.17, D 2.46
S2: C 2.4, T 2.44, I 2.02, A 2.54, Q 2.45, M 2.17, P 2.65, N 2.29, G 2.66, L 1.95, H 2.44, W 2.18, D 2.85, V 2.29, R 2.61, Y 2.64, E 2.55, K 1.92, F 1.99
F6: D 3.53, R 3.02, V 2.66, K 2.99, A 3.05, C 2.38, W 2.32, Y 2.52, L 2.39, T 3.4, M 2.76, H 2.99, E 3.22, P 3.02, G 3.31, Q 2.89, N 2.9, S 3.07, I 2.81
P1: K 2.56, Y 2.95, H 1.8, M 2.24, W 1.83, L 2.19, A 2.19, V 1.72, Q 2.4, I 2.02, N 2.42, S 2.21, T 2.39, C 2.05, D 2.77, G 2.69, R 2.34, F 1.89, E 2.42

Variants of: B2
Test: as above
Details: c terminus: a fixed tail appended

Protein stability index: each site, then its substitutions
T15: R 3.22, N 2.03, E 2.85, V 1.9, L 2.27, F 1.79, M 2.32, H 1.3, Y 1.84, I 1.44, P 2.88, D 1.79, Q 2.02, C 1.88, G 1.66, S 2.14, K 1.93, A 2.18, W 1.41
E24: H 2.4, D 1.39, K 1.99, I 2.39, S 1.98, T 1.23, Y 1.47, V 2.32, P 2.12, N 1.5, G 1.54, R 1.51, M 2.05, L 2.95, A 2.33, C 3.79, W 1.6, F 2.3, Q 2.5
Y21: M 1.75, Q 1.93, F 1.91, R 1.9, H 2.55, C 1.61, V 2.53, N 3.57, E 1.41, I 2.44, G 1.06, W 1.89, K 2.47, A 1.1, S 1.8, D 2.02, L 2.62
N16: V 1.82, F 2.41, A 1.61, W 1.58, R 1.47, Q 2.05, S 1.53, I 1.75, G 1.61, D 1.7, E 2.71, C 3.04, T 2.25, Y 2.46, P 2.55, K 1.81, L 1.64, M 2.61, H 5.27
R19: C 1.01, M 2.31, D 2.32, F 2.28, K 4.32, L 1.78, Y 3.01, G 1.09, S 1.79, N 2.83, P 2.54, E 1.56, T 2.28, V 1.74, H 3.89, W 1.78, I 1.84, A 2.27, Q 1.42
Y22: L 2.24, P 1.41, V 1.03, S 1.38, G 2.64, R 2.46, W 2.28, N 1.56, E 2.1, K 1.61, I 1.75, C 1.92, Q 3.25, A 3.02, T 2.94, D 2.29, H 1.82, M 2.33, F 1.65
P14: Q 1.47, H 3.08, R 3.25, S 2.5, W 2.21, T 1.11, Y 1.3, V 1.84, K 1.9, I 1.15, M 1.72
Y23: N 1.51, D 1.57, F 2.27, K 1.73, S 1.83, Q 1.73, G 1.96, V 1.3, R 1.96, T 1.57, C 1.49, P 3.56, I 1.5, A 1.75, W 1.78, E 2.52, L 1.39, M 2.06, H 1.51
C20: M 2.02, V 1.72, N 2.74, G 2.06, F 2.03, Q 2.03, W 1.5, A 1.58, T 2.38, R 2.12, L 1.69, K 2.32, D 1.79, H 1.84, S 1.96, Y 1.9, P 1.23, E 2.12
W17: R 1.52, N 3.07, M 1.85, E 1.91, F 1.59, D 1.91, H 2.34, P 1.54, Y 2.4, A 1.93, V 1.31, K 1.93, G 1.79, T 1.85, I 1.84, L 1.74, C 2.55, S 1.52, Q 1.89
L18: D 1.94, V 2.34, G 1.92, Q 1.73, Y 1.96, S 2.15, T 2.24, K 1.55, R 1.9, C 1.58, E 2.13, A 2.1, P 2.42, M 1.72, N 1.86, H 1.66
